Assay results: publication PMC3708883

Tests used:
[1] = biological target: β3 integrin (human (endogenous in peripheral blood monocytes)) (UniProt P05106)
[2] = biological target: β1 integrin (human (endogenous in peripheral blood monocytes)) (UniProt P05556)
Chain of β1 integrin (human (endogenous in peripheral blood monocytes)) (P05556 21-798): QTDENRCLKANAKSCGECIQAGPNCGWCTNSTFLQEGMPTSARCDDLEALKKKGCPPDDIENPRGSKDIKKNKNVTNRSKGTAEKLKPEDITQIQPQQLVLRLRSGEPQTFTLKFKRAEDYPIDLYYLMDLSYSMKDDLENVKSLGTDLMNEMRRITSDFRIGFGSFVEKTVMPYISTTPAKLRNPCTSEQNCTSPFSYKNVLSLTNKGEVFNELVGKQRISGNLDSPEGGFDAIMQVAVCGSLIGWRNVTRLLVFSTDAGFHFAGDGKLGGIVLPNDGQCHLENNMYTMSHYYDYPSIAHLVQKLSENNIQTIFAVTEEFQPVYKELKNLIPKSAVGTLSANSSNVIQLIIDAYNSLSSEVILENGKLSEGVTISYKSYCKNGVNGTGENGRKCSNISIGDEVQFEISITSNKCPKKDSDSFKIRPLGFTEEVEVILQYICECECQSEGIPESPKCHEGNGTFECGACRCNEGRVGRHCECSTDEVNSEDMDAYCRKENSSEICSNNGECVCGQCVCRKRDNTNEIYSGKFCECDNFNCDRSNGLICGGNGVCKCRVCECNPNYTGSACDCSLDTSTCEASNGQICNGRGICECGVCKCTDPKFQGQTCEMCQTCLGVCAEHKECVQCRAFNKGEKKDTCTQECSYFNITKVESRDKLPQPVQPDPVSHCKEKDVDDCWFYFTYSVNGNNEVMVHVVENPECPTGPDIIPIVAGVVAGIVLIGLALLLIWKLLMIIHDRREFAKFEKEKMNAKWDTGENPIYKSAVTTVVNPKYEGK

Chain of β3 integrin (human (endogenous in peripheral blood monocytes)) (P05106 27-788): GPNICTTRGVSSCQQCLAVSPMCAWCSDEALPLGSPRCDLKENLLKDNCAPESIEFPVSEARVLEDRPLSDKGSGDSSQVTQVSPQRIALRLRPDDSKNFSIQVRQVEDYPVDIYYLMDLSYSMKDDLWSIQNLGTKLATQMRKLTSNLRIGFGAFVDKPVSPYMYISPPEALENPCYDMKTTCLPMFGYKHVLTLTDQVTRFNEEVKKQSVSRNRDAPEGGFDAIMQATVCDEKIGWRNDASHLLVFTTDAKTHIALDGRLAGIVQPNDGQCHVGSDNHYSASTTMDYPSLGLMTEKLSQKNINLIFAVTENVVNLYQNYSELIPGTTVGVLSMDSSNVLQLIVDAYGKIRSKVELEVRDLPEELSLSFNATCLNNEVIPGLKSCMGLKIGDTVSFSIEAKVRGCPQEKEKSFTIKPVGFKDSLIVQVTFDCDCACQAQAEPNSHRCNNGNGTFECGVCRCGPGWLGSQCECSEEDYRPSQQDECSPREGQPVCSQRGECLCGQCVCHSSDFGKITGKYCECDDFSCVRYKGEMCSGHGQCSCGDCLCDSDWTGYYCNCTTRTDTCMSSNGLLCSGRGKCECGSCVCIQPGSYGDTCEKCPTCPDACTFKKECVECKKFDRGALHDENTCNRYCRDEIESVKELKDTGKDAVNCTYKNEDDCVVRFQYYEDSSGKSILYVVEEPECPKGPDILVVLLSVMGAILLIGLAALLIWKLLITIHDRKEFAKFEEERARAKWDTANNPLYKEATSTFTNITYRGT

Substance: HCMV gH/gL/UL128-131 complex of BADrUL131 (from UniProt P12824 24-743; P16832 31-278; P16837 1-171; P16772 1-214)
- inhibition of BADrUL131 entry into monocytes (internalized vDNA) after pretreatment with 5 µg/ml function blocking anti-β3 integrin antibody [1]: 40%
- inhibition of BADrUL131 entry into monocytes (internalized vDNA) after pretreatment with 5 µg/ml function blocking anti-β1 integrin antibody [2]: 75%
